# Patent US20200247855A1, “THERAPY AND DIAGNOSTICS” (OXFORD UNIVERSITY INNOVATION LIMITED, priority 2017, published 2020)
# T1: CCL8_HUMAN (Homo sapiens, UniProt P80075)
# T1 sequence (P80075 24-99): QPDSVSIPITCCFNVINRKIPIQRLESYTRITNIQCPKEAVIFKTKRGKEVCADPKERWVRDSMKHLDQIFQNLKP
# T2: CCL18_HUMAN (Homo sapiens, UniProt P55774)
# T2 sequence (P55774 21-89): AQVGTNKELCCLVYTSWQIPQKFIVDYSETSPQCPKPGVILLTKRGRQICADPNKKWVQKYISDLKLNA
# T3: CCL22_HUMAN (Homo sapiens, UniProt O00626)
# T3 sequence (O00626 25-93): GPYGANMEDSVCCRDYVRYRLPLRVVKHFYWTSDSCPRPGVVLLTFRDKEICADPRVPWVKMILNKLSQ
# T4: CCL24_HUMAN (Homo sapiens, UniProt O00175)
# T4 sequence (O00175 27-119): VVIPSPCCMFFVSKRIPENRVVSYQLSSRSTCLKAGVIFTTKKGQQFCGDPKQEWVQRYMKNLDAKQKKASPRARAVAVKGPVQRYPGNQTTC
# B1: P672_RHIPU: tick CKBP, Rhipicephalus pulchellus (protein, listed as Rhipicephalus pulchellus)
# chain: VCEVSEQEGVGEDNATEDEDYEDFFKPVTCYFANSTVGPLRPPNCTVVCTNNTAWWNDTKSDGGHCYSEYRPEKRTHSREIYNCTIGVCGNGTCIANHTYADCW
# B2: EVASIN4: previously described tick CKBP evasin 4, from Rhipicephalus sanguineus (protein, listed as Rhipicephalus sanguineus)
# chain: EVPQMTSSSAPDLEEEDDYTAYAPLTCYFTNSTLGLLAPPNCSVLCNSTTTWFNETSPNNASCLLTVDFLTQDAILQENQPYNCSVGHCDNGTCAGPPRHAQCW
# Columns and labels:
# [1] = test system: leucocyte recruitment to the zymosan air-pouch; test: Zymosan subcutaneous dorsal air-pouch inflammation model; type: in vivo; conditions: 5 mg/kg, exudate at 24 hours, mouse
# Method: Zymosan or PBS (control) was injected into the air-pouch (a.p.) on day 6. Peptide or protein (blue) was injected into the air-pouch on day 6 at the time of zymosan injection and repeated 9 hours later. Air-pouch exudate was collected and analysed on day 7 by flow cytometry (FC).
# G. Experimental design to assess efficacy of intraperitoneally administered peptide. This is identical to that used for locally administered peptide (above) except that peptide or protein was administered intraperitoneally (i.p.).
# C57BL/6J male mice (25-30 g, 8-10-week-old) were obtained from Charles River (UK). They were group housed in temperature and humidity-controlled rooms, kept on a 12-hr light-dark cycle, and provided with food and water ad libitum. Air pouches were established at the dorsal side of the mice as described (Duarte, D. B. et al., Curr Protoc Pharmacol [2016]). […] Total numbers of leucocytes, neutrophils, monocytes, T-cells and eosinophils were counted using an Attune N×T flow cytometer following staining with cell specific antibodies. […]
# To characterize the inflammatory subsets in the pouch, multi-colour fluorescence cell staining was conducted using the combination of the following antibodies for various immune cells. […] Data were analysed using FlowJo by an observer blinded to the treatment received. […]
# CCL8_HUMAN = biological target: T1, CCL8_HUMAN; conditions: Eaton, J. R. O. et al., JBC [2018], cited from earlier work
# CCL20_HUMAN = CCL20_HUMAN (Homo sapiens, UniProt P78556); conditions: data obtained from publications [20-22,32]; cited from earlier work
# CCL13_HUMAN = CCL13_HUMAN (Homo sapiens, UniProt Q99616); conditions: data obtained from publications [20-22,32]; cited from earlier work
# CCL18_HUMAN = biological target: T2, CCL18_HUMAN; conditions: read-out: Kd, CCL18_HUMAN, previously described evasins; data obtained from publications [20-22,32]; cited from earlier work
# CCL22_HUMAN = biological target: T3, CCL22_HUMAN; conditions: read-out: Kd, CCL22_HUMAN, previously described evasins; data obtained from publications [20-22,32]; cited from earlier work
# CCL24_HUMAN = biological target: T4, CCL24_HUMAN; conditions: read-out: Kd, CCL24_HUMAN, previously described evasins; data obtained from publications [20-22,32]; cited from earlier work
# Chain of CCL20_HUMAN (P78556 27-96): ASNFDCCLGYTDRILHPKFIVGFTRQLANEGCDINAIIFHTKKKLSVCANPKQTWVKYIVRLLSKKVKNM
# Chain of CCL13_HUMAN (Q99616 17-98): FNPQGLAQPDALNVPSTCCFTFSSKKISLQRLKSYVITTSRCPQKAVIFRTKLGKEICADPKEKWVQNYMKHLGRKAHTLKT
Molecule,"Number of neutrophils, eosinophils, monocytes and T-cells recruited to the air-pouch, local administration ([1]; injected into the air-pouch at 0 and 9 h)","Number of neutrophils, eosinophils, monocytes and T-cells recruited to the air-pouch, intraperitoneal administration ([1]; injected intraperitoneally at 0 and 9 h)",Residency time (RT) of P672:CCL8 interaction (CCL8_HUMAN),Kd (CCL8_HUMAN; read-out: Kd of P672:CCL8 interaction),"Kd, CCL20_HUMAN, previously described evasins (CCL20_HUMAN)","Kd, CCL13_HUMAN, previously described evasins (CCL13_HUMAN)",Kd (CCL18_HUMAN),Kd (CCL22_HUMAN),Kd (CCL24_HUMAN)
B1,strong and significant reduction,substantial and significant reduction,27 min,8.5 nM,–,–,–,–,–
B2,–,–,–,–,No Binding,No Binding,0.03 nM,0.43 nM,0.41 nM
